Data taken from article PMC12256112.
Each block holds one molecule with its values, some of them ahead of it.

How the values were obtained:
[1] = target: isolated Rpn11/Rpn8 heterodimer with Rpn11 A89I (S. cerevisiae) (UniProt P43588)
[2] = target: isolated Rpn11/Rpn8 heterodimer with Rpn11 A89F (S. cerevisiae) (UniProt P43588)
[3] = target: Rpn11, wild type, deubiquitinase subunit of the lid in the reconstituted 26S proteasome (S. cerevisiae) (UniProt P43588)
[4] = target: Rpn11 L132R, deubiquitinase subunit of the lid in the reconstituted receptor-deficient 26S proteasome (S. cerevisiae) (UniProt P43588)
[5] = target: Rpn11, wild type, deubiquitinase subunit of the lid in the reconstituted 26S proteasome (S. cerevisiae) (UniProt P43588); remark: listed apart in the source
[6] = target: Rpn11, wild type, deubiquitinase subunit of the lid in the reconstituted 26S proteasome (S. cerevisiae) (UniProt P43588); remark: listed apart in the source
[7] = target: Rpn11 A89F, deubiquitinase subunit of the lid in the reconstituted receptor-deficient 26S proteasome (S. cerevisiae) (UniProt P43588)
[8] = target: Rpt5, ATPase subunit of the base, in the reconstituted 26S proteasome (S. cerevisiae) (UniProt P33297)

Molecule: Ubiquitin-TAMRA
- deubiquitinase activity of the isolated Rpn11/Rpn8 heterodimer (0.5 μM) on 100 μM Ubiquitin-TAMRA, against wild-type Rpn11 (fluorescence polarisation, 30°C) [1]: 10 fold
- deubiquitinase activity of the isolated Rpn11/Rpn8 heterodimer (0.5 μM) on 100 μM Ubiquitin-TAMRA, against wild-type Rpn11 (fluorescence polarisation, 30°C) [2]: 1.3 fold

Molecule: poly-ubiquitinated GS substrate (titin I27^V15P with glycine-serine-rich initiation region, long ubiquitin chains attached) (from UniProt P0CG63 1-76)
- degradation rate of the GS substrate with long ubiquitin chains by SspB-fused ARR-Pru-ΔUIM proteasomes; 0.25 min^-1 for the non-ubiquitinated GS substrate (bulk degradation assay) [5]: 1 min⁻¹

Other lines, results leading:

- degradation rate of the mono-ubiquitinated GS substrate by the SspB-fused ARR-Pru-ΔUIM proteasome with wild-type Rpn11, against the non-ubiquitinated GS substrate (bulk degradation assay) [3]: 0.38 min⁻¹
- degradation rate of the mono-ubiquitinated GS substrate by the SspB-fused ARR-Pru-ΔUIM proteasome with Rpn11^L132R; no ubiquitin-mediated stimulation (bulk degradation assay) [4]: 0.25 min⁻¹
Molecule: mono-ubiquitinated GS substrate (titin I27^V15P with glycine-serine-rich initiation region, one ubiquitin K63R attached) (from UniProt P0CG63 1-76)

- average tail-insertion time constant of the wild-type proteasome without and with unanchored K48-Ub4 (single-molecule FRET substrate-processing assay) [6]: 1.39 s
- SspB-delivered substrate degradation by ARR-Pru-ΔUIM-A89F proteasomes without and with K48-Ub4 (bulk degradation assay) [7]: 1.2 fold
Molecule: unanchored K48-linked tetraubiquitin chain (from UniProt P0CG63 1-76)

- SspB-delivered substrate degradation by proteasomes with Rpn10^EKK against wild-type proteasomes (bulk degradation assay) [8]: 1.6 fold
- s1-to-non-s1 transition rate of proteasomes with Rpn10^EKK against wild-type proteasomes (single-molecule FRET conformational dynamics assay) [8]: 40%
B1: Rpn10 with the R23E, D31K and E68K mutations in its VWA domain, as subunit of the reconstituted 26S proteasome (receptor)
chain: MVLEATVLVIDNSEYSRNGDFPETRFEAQIKSVEFIFQAKRNSNPENTVGLISGAGANPRVLSTFTAKFGKILAGLHDTQIEGKLHMATALQIAQLTLKHRQNKVQHQRIVAFVCSPISDSRDELIRLAKTLKKNNVAVDIINFGEIEQNTELLDEFIAAVNNPQEETSHLLTVTPGPRLLYENIASSPIILEEGSSGMGAFGGSGGDSDANGTFMDFGVDPSMDPELAMALRLSMEEEQQRQERLRQQQQQQDQPEQSEQPEQHQDK
